These results are taken from paper PMC7613929 (Nature microbiology, 2022).

For data set [1], the system named is FtsA cysteine mutant E. coli strains. As to the kind of experiment: In vivo cysteine cross-linking, Western blot. The format is cell-based, Escherichia coli. To be noted: Western blot against 3x HA-tag. The procedure: Strains were grown to exponential phase (OD600 = 0.2-0.4) in LB from overnight cultures, and 0.9375 OD units harvested using centrifugation at 4°C. Cells were kept on ice for the duration of the experiment, unless stated otherwise. Cells were washed in 500 μl PBS and resuspended in 50 μl PBS. 1.25 μl DMSO or cross-linker (dBBr: Dibromobimane, BMOE: Bismaleimidoethane, BMB: 1,4-bismaleimidobutane or BMH: Bismaleimidohexane) in DMSO (20 mM stock) were added. Samples were incubated for 10 min and quenched by adding 1 μl 2-ME (1.43 M stock in MPW). Cells were resuspended in 50 μl lysis buffer [1 mM EDTA (pH 7.4), 14.3 mM 2-ME, cOmplete EDTA-free Protease Inhibitor Cocktail (Roche), 0.25 U/μl Benzonase (Merck) and 0.5 U/μl ReadyLyse Lysozyme (Lucigen) in B-PER (ThermoFisher)]. Samples were incubated at RT for 5 min. 50 μl of 2x SDS sample loading buffer supplemented with 3 % v/v 2-ME were added. Samples were incubated at 95°C for 5 min, and the equivalent of 0.1875 OD units of cells was analysed by SDS-PAGE. Western blotting was performed using a Trans-Blot turbo (BioRad) with the corresponding Midi 0.2 μm PVDF transfer pack. Blots were run at 25 V and 2.5 A for 7 min. Membranes were blocked in PBS + 5 % milk for 30-40 min, washed in PBS and incubated with anti-HA-Peroxidase antibody (Roche 12013819001) (1/1000 in PBST + 5 % milk) at RT for 1-1.5h. Membranes were washed thoroughly with PBST, developed using the ECL Prime Western blotting detection kit (Amersham/Cytiva) and imaged on a Gel DocTM XR+ (Bio-Rad). Presented images were contrast-adjusted for display purposes.

The target of data set [2] is T1, FtsA (Escherichia coli, UniProt P0ABH0).
T1 construct: made in house; host or cells: E. coli C41(DE3)
As to the kind of experiment: SPR, EcFtsN^1-32 truncations and mutations binding to immobilised FtsA. To be noted: SPR equilibrium response; peptide 1:2 dilution series from 20 μM; mean ± SEM (n ≥ 2 for each construct); asterisk: maximum response fixed during fitting, approximate values; ND: not determinable; read-out: SPR K^eqd. Here is the method: SPR was performed using a Biacore T200 using CM5-sensor chips (Cytiva). Reference control and analyte channels were equilibrated in binding buffer. […] After reference and buffer signal correction, sensogram data were fitted using Prism 8.0 (GraphPad). Equilibrium response (Req) data were fitted to a single-site interaction model to determine Kd: (1) Req=(CRmax/C+Kd)+B, where C is the analyte concentration and Rmax is the maximum response at saturation and B is the background resonance.

For data set [3], the target named is Vibrio maritimus FtsA residues 1-396 (VmFtsA^1-396) (Vibrio maritimus). In words: crystal structure; co-crystallisation of VmFtsA^1-396 at 3 mg/ml with 2 mM ATP and 0.353 mM VmFtsN^1-29; crystallisation at pH 8.5.
For data set [4], the target named is VmFtsN^1-29-C-Atto 495 (Vibrio maritimus). As to the kind of experiment: fluorescence polarisation; C-terminally truncated FtsA titrated (1:2 dilution series) into 20 nM Atto 495-labelled FtsN peptide; binding buffer with 0.05 % v/v Tween-20, RT; two-step model.
Data set [5] addresses Vibrio maritimus FtsA residues 1-396 (VmFtsA^1-396) (Vibrio maritimus). As to the kind of experiment: SPR; Biacore T200, FtsA immobilised on CM5 chip by amide coupling (2000-7800 RU), FtsN peptides injected 120 s in 1:2 dilution series; binding buffer (50 mM HEPES/KOH, 100 mM KAc, 5 mM MgAc2, pH 7.7); equilibrium response fitted to a single-site model. In general terms: SPR reads the build-up and loss of mass on a sensor chip optically.

Data set [6] concerns the target T2, Vibrio maritimus FtsA residues 1-396 (VmFtsA^1-396) (Vibrio maritimus).
T2 chain: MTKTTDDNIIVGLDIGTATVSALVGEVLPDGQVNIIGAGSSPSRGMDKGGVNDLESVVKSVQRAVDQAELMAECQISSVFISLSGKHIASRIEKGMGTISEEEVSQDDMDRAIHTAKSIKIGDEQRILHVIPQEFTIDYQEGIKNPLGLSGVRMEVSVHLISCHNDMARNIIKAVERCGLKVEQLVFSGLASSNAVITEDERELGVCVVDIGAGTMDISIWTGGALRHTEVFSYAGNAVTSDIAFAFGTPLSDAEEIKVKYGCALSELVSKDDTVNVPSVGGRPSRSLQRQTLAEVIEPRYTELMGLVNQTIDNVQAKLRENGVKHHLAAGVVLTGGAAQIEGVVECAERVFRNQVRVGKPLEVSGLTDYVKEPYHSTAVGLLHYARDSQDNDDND
In words: FP; two-step model, first transition (FtsN binding).

Data set [7] has as its target T2, Vibrio maritimus FtsA residues 1-396 …. As to the kind of experiment: AUC; two-step model, first transition (FtsN binding).
Data set [8] has the same target. In words: FP; two-step model, second transition (polymerisation).
Data set [9] has the same target. In words: AUC; two-step model, second transition (polymerisation).
Data set [10] deals with the molecule itself. As to the kind of experiment: cryo-EM with 2D classification; EcFtsA at 0.15 mg/ml with 1 mM ATP on lipid monolayer, without FtsN peptide.
Data set [11] deals with the molecule itself. As to the kind of experiment: co-sedimentation; co-pelleting: truncated FtsA at 1 mg/ml (~23 μM) with half, 1-, 3-, 6- or 10-fold molar FtsN peptide in binding buffer, 20°C, 20,000x g for 10 min, SDS-PAGE of supernatant and pellet.
The mark [12] stands for this setting: ftsA^3x HA, Q155C mutant, exponential phase cells in PBS on ice, 10 min.

Values joined by “and” are separate entries in the source; they are usually repeats but may differ in a detail not shown here. Equal entries are not always repeated. Ends that are not written are not given here.

With `O=C1C=CC(=O)N1CCCCN1C(=O)C=CC1=O` [BMB, 1,4-bismaleimidobutane], in data set [1] (setting [12]), the “Covalent FtsA dimer after in vivo cross-linking, in words” value (shortened to “Covalent FtsA dimer”) is “FtsA dimers can be detected”. Still for that read-out and setting: with `O=C1C=CC(=O)N1CCCCCCN1C(=O)C=CC1=O` [BMH, bismaleimidohexane] the entry was “FtsA dimers can be detected”. Regarding `O=C1C=CC(=O)N1CCN1C(=O)C=CC1=O` [BMOE, bismaleimidoethane], the “Covalent FtsA dimer” value is listed as “Signal for covalent FtsA dimers can be detected for both double cysteine mutants” in data set [1] (double cysteine mutants ftsA^3x HA, P98C, S118C and ftsA^3x HA, E199C, S252C); “but not with BMOE” in data set [1] (setting [12]). As for `Cc1c(CBr)n2c(CBr)c(C)c(=O)n2c1=O` [dBBr, dibromobimane], in [1] (ftsA^3x HA, D123C mutant, exponential phase cells in PBS on ice, 10 min), the “Covalent FtsA dimer” value was “Signal for a FtsA dimer can be detected”. Take “MAQRDYVRRSQPAPSAASASTSRKKQRNLPAV [EcFtsN^1-32, ΔRK2]”: the Kd in data set [2] is approximately 166 µM. For “MAQRDYVRRSQPAPSRRKKSTSASAQRNLPAV [EcFtsN^1-32, ΔRK3]”, the Kd in data set [2] was approximately 80.6 µM. What is called stoichiometry N is the number of molecules, sites or subunits per partner or assembly. Turning to “Vibrio maritimus FtsA residues 1-396 (VmFtsA^1-396) (domain or fragment)”, the stoichiometry N in data set [3] is 4. In data set [4], the fold weaker for the first binding event than EcFtsA^1-405 with FtsN^(1-32-C-Atto 495) turned out to be 4 fold. Take “Vibrio maritimus FtsN cytoplasmic peptide, residues 1-29 (VmFtsN^1-29)”: the fold weaker than the EcFtsA^1-405-EcFtsN^1-32 interaction in data set [5] was determined as 3 fold. As for MANRDYVRRGKGTSRRPAKKKTSGKKPWRC (Atto 495 (maleimide) on the added C-terminal cysteine) [VmFtsN^1-29-C-Atto 495], the Kd in [6] was found to be 0.062 µM; in [7] it was 0.018 µM; in data set [8], 10 µM; in [9], 55 µM.

B1: E. coli FtsA (EcFtsA), full length (natural protein, UniProt P0ABH0 1-420, looked up)
chain: MIKATDRKLVVGLEIGTAKVAALVGEVLPDGMVNIIGVGSCPSRGMDKGGVNDLESVVKCVQRAIDQAELMADCQISSVYLALSGKHISCQNEIGMVPISEEEVTQEDVENVVHTAKSVRVRDEHRVLHVIPQEYAIDYQEGIKNPVGLSGVRMQAKVHLITCHNDMAKNIVKAVERCGLKVDQLIFAGLASSYSVLTEDERELGVCVVDIGGGTMDIAVYTGGALRHTKVIPYAGNVVTSDIAYAFGTPPSDAEAIKVRHGCALGSIVGKDESVEVPSVGGRPPRSLQRQTLAEVIEPRYTELLNLVNEEILQLQEKLRQQGVKHHLAAGIVLTGGAAQIEGLAACAQRVFHTQVRIGAPLNITGLTDYAQEPYYSTAVGLLHYGKESHLNGEAEVEKRVTASVGSWIKRLNSWLRKEF
notes: FtsA, E. coli, full length; also called WT; source: E. coli C41(DE3), purified (HisTrap, chitin resin with intein cleavage, SEC); not shown: intein-CBD-12H, C-terminal, cleaved
As for B1, the “stoichiometry N” value in data set [10] was 13 and 12.

B2: E. coli FtsA residues 1-405 (EcFtsA^1-405) (domain or fragment, UniProt P0ABH0 1-405, looked up)
chain: MIKATDRKLVVGLEIGTAKVAALVGEVLPDGMVNIIGVGSCPSRGMDKGGVNDLESVVKCVQRAIDQAELMADCQISSVYLALSGKHISCQNEIGMVPISEEEVTQEDVENVVHTAKSVRVRDEHRVLHVIPQEYAIDYQEGIKNPVGLSGVRMQAKVHLITCHNDMAKNIVKAVERCGLKVDQLIFAGLASSYSVLTEDERELGVCVVDIGGGTMDIAVYTGGALRHTKVIPYAGNVVTSDIAYAFGTPPSDAEAIKVRHGCALGSIVGKDESVEVPSVGGRPPRSLQRQTLAEVIEPRYTELLNLVNEEILQLQEKLRQQGVKHHLAAGIVLTGGAAQIEGLAACAQRVFHTQVRIGAPLNITGLTDYAQEPYYSTAVGLLHYGKESHLNGEAEVEKRVTASV
notes: also called C-terminally truncated FtsA; source: E. coli C41(DE3), purified (HisTrap, SUMO cleavage with GST-SENP1, SEC); not shown: 6H-SUMO, N-terminal, cleaved
With B2, in [11], the binding result is listed as “binds”.
